In test [1] the target is Mouse serum rVP56-AlOH (mouse 1). Nature of the test: flow cytometry, inhibition of surface labeling by serum rVP56-AlOH (mouse 1). (In general: Flow cytometry measures light scatter and fluorescence of single cells or particles in a stream.)
The target in test [2] is Mouse serum rVP56-AlOH (mouse 2). Nature of the test: flow cytometry, inhibition of surface labeling by serum rVP56-AlOH (mouse 2).
Test [3] concerns the target Mouse serum rVP147-AlOH (mouse 1). The experiment in a line: flow cytometry, inhibition of surface labeling by serum rVP147-AlOH (mouse 1).
The target in test [4] is Mouse serum rVP147-AlOH (mouse 2). Nature of the test: flow cytometry, inhibition of surface labeling by serum rVP147-AlOH (mouse 2).
Test [5] concerns the target Mouse serum rVP56-QuilA (mouse 1). Nature of the test: flow cytometry, inhibition of surface labeling by serum rVP56-QuilA (mouse 1).
Test [6] deals with Mouse serum rVP147-QuilA (mouse 1). The experiment in a line: flow cytometry, inhibition of surface labeling by serum rVP147-QuilA (mouse 1).
In test [7] the target is Mouse serum rVP147-QuilA (mouse 2). Nature of the test: flow cytometry, inhibition of surface labeling by serum rVP147-QuilA (mouse 2).
Test [8] addresses Mouse serum rVP56-QuilA (mouse 2). Nature of the test: flow cytometry, inhibition of surface labeling by serum rVP56-QuilA (mouse 2).

B1: New 139 (protein)
chain: MQITYTDDEIQVAKLAGKYTTEDGYIFDGGWIKKDSLSEAERAAAQAYAKEKGLTPPSTDHQDSGNTEAKGAEAIYNRVKAAKKVPLDRMPYNLQYTVEVKNGSLIIPHHDHYHNIKFEWFDEGLYEAPKGYSLEDLLATVKYYVEGGNASDHVRKNKADQDSKPDEDKEHDEVSEPTHPESDEKENHAGLNPSADNLYKPSTDTEETEEEAEDTTDEAEIPGGPSIRQNAMETLTGLKSSLLLGTKDNNTISAEVDSLLALLKESQPAPIQ
The % inhibition is the drop in the measured response relative to a control, in per cent. Consider B1, for which the % inhibition stood at 0% in test [1]; 0% in test [2]; 53.8% in test [3]; 49.7% in test [4]; 0.2% in test [5]; 41.3% in test [6]. Also, the % inhibition in test [7] was 40.7%.

B2: VP147 (protein)
chain: MQITYTDDEIQVAKLAGKYTTEDGYIFDGGWIKKDSLSEAERAAAQAYAKEKGLTPPSTDHQDSGNTEAKGAEAIYNRVKAAKKVPLDRMPYNLQYTVEVKNGSLIIPHHDHYHNIKFEWFDEGLYEAPKGYSLEDLLATVKYYVEGGNASDHVRKNKADQDSKPDEDKEHDEVSEPTHPESDEKENHAGLNPSADNLYKPSTDTEETEEEAEDTTDEAEIPGGPSIRQNAMETLTGLKSSLLLGTKDNNTISAEVDSLLALLKESQPAPIQGGQIGQPTLPNNSLATPSPSLPINPGTSHEKHEEDGYGFDANRIIAEDESGFVMSHGDSNHYFFKKDLTEEQIKAAQKHLEEVKTSHNGLDSLSSHEQDYPGNAKEMKDLDKKIEEKIAGIMKQYGVKRESIVVNKEKNAIIYPSGDHHHADPIDEHKPVGIGHSHSNYELFKPEEGVAKKEGNKVYTGEELTNVVNLLKNSTFNNQNFTLANGQKRVSFSFPPELEKKLGINMLVKLITPDGKVLEKVSGKVFGEGVGNIANFELDQPYLPGQTFKYTIASKDYPEVSYDGTFTVPTSLAYKMASQTIFYPFHAGDTYLRVNPQFAVPKGTDALVRVFDEFHGNAYLENNYKVGEIKLPIPKLNQGTTRTAGNKIPVTFMANAYLDNQSTYIVEVPILEKENQTDKPSILPQFKRNKAQENSKLDEKVEEPKTSEKVEKEKLSETGNSTSNSTLEEVPTVDPVQEKVAKFAESYGMKLENVLFNMDGTIELYLPSGEVIKKNMADFTGEAPQGNGENKPSENGKVSTGTVENQPTENKPADSLPEAPNEKPVKPENSTDNGMLNPEGNVGSDPMLDPALEEAPAVDPVQEKLEKFTASYGLGLDSVIFNMDGTIELRLPSGEVIKKNLSDFIA
As for B2, the % inhibition is 99.6% in test [1]; 100% in test [2]; 99.7% in test [3]; 99.8% in test [4]; 99.5% in test [5]; 99.3% in test [8]. For the same molecule, the % inhibition in test [6] stood at 99.7%; in test [7] it was 99.6%.

B3: VP56 (protein)
chain: MQIGQPTLPNNSLATPSPSLPINPGTSHEKHEEDGYGFDANRIIAEDESGFVMSHGDSNHYFFKKDLTEEQIKAAQKHLEEVKTSHNGLDSLSSHEQDYPGNAKEMKDLDKKIEEKIAGIMKQYGVKRESIVVNKEKNAIIYPSGDHHHADPIDEHKPVGIGHSHSNYELFKPEEGVAKKEGNKVYTGEELTNVVNLLKNSTFNNQNFTLANGQKRVSFSFPPELEKKLGINMLVKLITPDGKVLEKVSGKVFGEGVGNIANFELDQPYLPGQTFKYTIASKDYPEVSYDGTFTVPTSLAYKMASQTIFYPFHAGDTYLRVNPQFAVPKGTDALVRVFDEFHGNAYLENNYKVGEIKLPIPKLNQGTTRTAGNKIPVTFMANAYLDNQSTYIVEVPILEKENQTDKPSILPQFKRNKAQENSKLDEKVEEPKTSEKVEKEKLSETGNSTSNSTLEEVPTVDPVQEKVAKFAESYGMKLENVLFNMDGTIELYLPSGEVIKKNMADFTGEAPQGNGENKPSENGKVSTGTVENQPTENKPADSLPEAPNEKPVKPENSTDNGMLNPEGNVGSDPMLDPALEEAPAVDPVQEKLEKFTASYGLGLDSVIFNMDGTIELRLPSGEVIKKNLSDFIA
As for B3, the % inhibition in test [1] is 99.7%; in test [2], 100%; in test [3] it was 50%; in test [4], 61.6%; in test [5], 99.7%; in test [8], 99.8%. Further, the % inhibition in test [6] was 68.1%; in test [7], 74.1%.

Values taken from patent publication US7262024.
